According to paper PMC2724291 (Nucleic Acids Research, 2009):
Positions count from the first letter of the chain named. Names and notes keep the numbering of the source. Read-outs that look alike come from different tables or passages of the source.

Legend:
SEC [1] = target: the molecule itself; experiment: SEC
SEC [2] = target: the molecule itself; experiment: SEC; remark: listed apart in the source

B1: hMBP-γ (H1 and H2 of the putative coiled-coil motif of ϕC31 Int fused to histidine-tagged maltose-binding protein) (domain or fragment, phage ϕC31, UniProt Q9T221 445-524, looked up)
chain: GKLTEAPEKSGERANLVAERADALNALEELYEDRAAGAYDGPVGRKHFRKQQAALTLRQQGAEERLAELEAAEAPKLPLD
stoichiometry N (SEC [1]): 2

B2: hMBP-γ^E449K (domain or fragment, phage ϕC31, UniProt Q9T221 445-524, looked up)
chain: B1 chain with E5K
binding result (SEC [1]): binds

B3: wild-type ϕC31 integrase (Int) (enzyme, phage ϕC31, UniProt Q9T221 1-605, looked up)
chain: MDTYAGAYDRQSRERENSSAASPATQRSANEDKAADLQREVERDGGRFRFVGHFSEAPGTSAFGTAERPEFERILNECRAGRLNMIIVYDVSRFSRLKVMDAIPIVSELLALGVTIVSTQEGVFRQGNVMDLIHLIMRLDASHKESSLKSAKILDTKNLQRELGGYVGGKAPYGFELVSETKEITRNGRMVNVVINKLAHSTTPLTGPFEFEPDVIRWWWREIKTHKHLPFKPGSQAAIHPGSITGLCKRMDADAVPTRGETIGKKTASSAWDPATVMRILRDPRIAGFAAEVIYKKKPDGTPTTKIEGYRIQRDPITLRPVELDCGPIIEPAEWYELQAWLDGRGRGKGLSRGQAILSAMDKLYCECGAVMTSKRGEESIKDSYRCRRRKVVDPSAPGQHEGTCNVSMAALDKFVAERIFNKIRHAEGDEETLALLWEAARRFGKLTEAPEKSGERANLVAERADALNALEELYEDRAAGAYDGPVGRKHFRKQQAALTLRQQGAEERLAELEAAEAPKLPLDQWFPEDADADPTGPKSWWGRASVDDKRVFVGLFVDKIVVTKSTTGRGQGTPIEKRASITWAKPPTDDDEDDAQDGTEDVAA
binding result (SEC [2]): binds
